Columns and labels:
[1] = biological target: T1, Human FRA on IGROV-1 human ovarian adenocarcinoma cells (human, UniProt P15328 25-234); test: cell-based or functional assay
[2] = biological target: T1, Human FRA on IGROV-1 human ovarian …; test: cell-based or functional assay; remark: listed apart in the source
[3] = biological target: T1, Human FRA on IGROV-1 human ovarian …; test: cell-based or functional assay; remark: listed apart in the source
[4] = biological target: T2, Recombinant human folate receptor alpha (FRA) (human, UniProt P15328 25-234); test: SPR, FRA on CM5 chip, parallel line analysis; reference standard = 100%
T2 construct: Immobilised on a CM5 chip by amine coupling; also called FR-alpha
T2 sequence (P15328 25-234 limits assumed): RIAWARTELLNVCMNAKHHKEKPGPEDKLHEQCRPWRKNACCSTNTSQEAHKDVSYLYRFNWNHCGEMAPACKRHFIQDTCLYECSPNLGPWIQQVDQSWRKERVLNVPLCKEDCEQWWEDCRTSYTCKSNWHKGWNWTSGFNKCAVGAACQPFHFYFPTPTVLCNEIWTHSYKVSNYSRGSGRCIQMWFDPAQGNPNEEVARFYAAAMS
Description: The surface was regenerated between cycles by flushing with 10 mM glycine pH 2.0.

T1 sequence (P15328 25-234 limits assumed): as above

Binder | Internalization IC50 [1] [mg/L] | IC50 (Hum-ZAP secondary immunotoxin killing of IGROV-1 cells) [2] [ng·mL] | Half-Maximal Internalization Constant [1] [min] | INTL % (0 Min) [3] [%] | INTL % (15 min) [3] [%] | INTL % (30 min) [3] [%] | INTL % (60 min) [3] [%] | INTL % (150 min) [3] [%] | Measured Potency (%) [4] [%]
MORAb-003 anti-FRA antibody reference standard (antibody, human IgG1, kappa, V domains shown, N-linked neutral glycans at Asn299 in SEQ ID NO: 5) VH: EVQLVESGGGVVQPGRSLRLSCSASGFTFSGYGLSWVRQAPGKGLEWVAMISSGGSYTYYADSVKGRFAISRDNAKNTLFLQMDSLRPEDTGVYFCARHGDDPAWFAYWGQGTPVTVSS VL: DIQLTQSPSSLSASVGDRVTITCSVSSSISSNNLHWYQQKPGKAPKPWIYGTSNLASGVPSRFSGSGSGTDYTFTISSLQPEDIATYYCQQWSSYPYMYTFGQGTKVEIKR | 0.014 | 14 |  |  |  |  |  |  | 
MORAb-003 anti-FRA antibody, lot NB810-12 (low temperature; harvested 14 days after initiation of culture) (antibody, human IgG1, kappa, V domains shown, N-linked neutral glycans at Asn299 in SEQ ID NO: 5) VH: EVQLVESGGGVVQPGRSLRLSCSASGFTFSGYGLSWVRQAPGKGLEWVAMISSGGSYTYYADSVKGRFAISRDNAKNTLFLQMDSLRPEDTGVYFCARHGDDPAWFAYWGQGTPVTVSS VL: DIQLTQSPSSLSASVGDRVTITCSVSSSISSNNLHWYQQKPGKAPKPWIYGTSNLASGVPSRFSGSGSGTDYTFTISSLQPEDIATYYCQQWSSYPYMYTFGQGTKVEIKR | 0.025 | 25 | 41.2 | 0 | 3 | 21 | 39 | 55 | 87.3
MORAb-003 anti-FRA antibody, lot NB809-68 (high CO2; harvested 13 days after initiation of culture) (antibody, human IgG1, kappa, V domains shown, N-linked neutral glycans at Asn299 in SEQ ID NO: 5) VH: EVQLVESGGGVVQPGRSLRLSCSASGFTFSGYGLSWVRQAPGKGLEWVAMISSGGSYTYYADSVKGRFAISRDNAKNTLFLQMDSLRPEDTGVYFCARHGDDPAWFAYWGQGTPVTVSS VL: DIQLTQSPSSLSASVGDRVTITCSVSSSISSNNLHWYQQKPGKAPKPWIYGTSNLASGVPSRFSGSGSGTDYTFTISSLQPEDIATYYCQQWSSYPYMYTFGQGTKVEIKR | 0.028 | 28 | 46.5 | 0 | 4 | 14 | 36 | 52 | 50.5
MORAb-003 anti-FRA antibody, lot NB859-28 (low DO; harvested 14 days after initiation of culture) (antibody, human IgG1, kappa, V domains shown, N-linked neutral glycans at Asn299 in SEQ ID NO: 5, also called low DO (round 3)) VH: EVQLVESGGGVVQPGRSLRLSCSASGFTFSGYGLSWVRQAPGKGLEWVAMISSGGSYTYYADSVKGRFAISRDNAKNTLFLQMDSLRPEDTGVYFCARHGDDPAWFAYWGQGTPVTVSS VL: DIQLTQSPSSLSASVGDRVTITCSVSSSISSNNLHWYQQKPGKAPKPWIYGTSNLASGVPSRFSGSGSGTDYTFTISSLQPEDIATYYCQQWSSYPYMYTFGQGTKVEIKR |  |  | 36.5 | 0 |  | 19 | 44 | 53 | 44.5
MORAb-003 anti-FRA antibody, lot NB810-13 (high osmolarity; harvested 14 days after initiation of culture) (antibody, human IgG1, kappa, V domains shown, N-linked neutral glycans at Asn299 in SEQ ID NO: 5) VH: EVQLVESGGGVVQPGRSLRLSCSASGFTFSGYGLSWVRQAPGKGLEWVAMISSGGSYTYYADSVKGRFAISRDNAKNTLFLQMDSLRPEDTGVYFCARHGDDPAWFAYWGQGTPVTVSS VL: DIQLTQSPSSLSASVGDRVTITCSVSSSISSNNLHWYQQKPGKAPKPWIYGTSNLASGVPSRFSGSGSGTDYTFTISSLQPEDIATYYCQQWSSYPYMYTFGQGTKVEIKR | 0.99 | 990 | 49.6 | 0 |  | 17 | 40 | 62 | 72.6
MORAb-003 anti-FRA antibody, lot NB809-65 (positive control; harvested 13 days after initiation of culture) (antibody, human IgG1, kappa, V domains shown, N-linked neutral glycans at Asn299 in SEQ ID NO: 5, also called Pos. ctl; positive control (round 2)) VH: EVQLVESGGGVVQPGRSLRLSCSASGFTFSGYGLSWVRQAPGKGLEWVAMISSGGSYTYYADSVKGRFAISRDNAKNTLFLQMDSLRPEDTGVYFCARHGDDPAWFAYWGQGTPVTVSS VL: DIQLTQSPSSLSASVGDRVTITCSVSSSISSNNLHWYQQKPGKAPKPWIYGTSNLASGVPSRFSGSGSGTDYTFTISSLQPEDIATYYCQQWSSYPYMYTFGQGTKVEIKR | 0.014 | 14 | 51.7 | 0 | 3 | 13 | 33 | 52 | 49.7
MORAb-003 anti-FRA antibody, lot NB809-66 (0.5 mM Na butyrate; harvested 13 days after initiation of culture) (antibody, human IgG1, kappa, V domains shown, N-linked neutral glycans at Asn299 in SEQ ID NO: 5) VH: EVQLVESGGGVVQPGRSLRLSCSASGFTFSGYGLSWVRQAPGKGLEWVAMISSGGSYTYYADSVKGRFAISRDNAKNTLFLQMDSLRPEDTGVYFCARHGDDPAWFAYWGQGTPVTVSS VL: DIQLTQSPSSLSASVGDRVTITCSVSSSISSNNLHWYQQKPGKAPKPWIYGTSNLASGVPSRFSGSGSGTDYTFTISSLQPEDIATYYCQQWSSYPYMYTFGQGTKVEIKR | 0.015 | 15 | 53.5 | 0 | 3 | 8 | 31 | 50 | 61.5
MORAb-003 anti-FRA antibody, lot NB810-11 (galactose supplement; harvested 14 days after initiation of culture) (antibody, human IgG1, kappa, V domains shown, N-linked neutral glycans at Asn299 in SEQ ID NO: 5) VH: EVQLVESGGGVVQPGRSLRLSCSASGFTFSGYGLSWVRQAPGKGLEWVAMISSGGSYTYYADSVKGRFAISRDNAKNTLFLQMDSLRPEDTGVYFCARHGDDPAWFAYWGQGTPVTVSS VL: DIQLTQSPSSLSASVGDRVTITCSVSSSISSNNLHWYQQKPGKAPKPWIYGTSNLASGVPSRFSGSGSGTDYTFTISSLQPEDIATYYCQQWSSYPYMYTFGQGTKVEIKR | 0.019 | 19 | 56.6 | 0 | 3 | 6 | 29 | 50 | 84.7
MORAb-003 anti-FRA antibody, lot NB809-67 (low DO; harvested 13 days after initiation of culture) (antibody, human IgG1, kappa, V domains shown, N-linked neutral glycans at Asn299 in SEQ ID NO: 5) VH: EVQLVESGGGVVQPGRSLRLSCSASGFTFSGYGLSWVRQAPGKGLEWVAMISSGGSYTYYADSVKGRFAISRDNAKNTLFLQMDSLRPEDTGVYFCARHGDDPAWFAYWGQGTPVTVSS VL: DIQLTQSPSSLSASVGDRVTITCSVSSSISSNNLHWYQQKPGKAPKPWIYGTSNLASGVPSRFSGSGSGTDYTFTISSLQPEDIATYYCQQWSSYPYMYTFGQGTKVEIKR | 0.029 | 29 | 50.7 | 0 | 3 | 14 | 34 | 53 | 56.2
MORAb-003 anti-FRA antibody, lot NB809-69 (10 mM Na butyrate; harvested 13 days after initiation of culture) (antibody, human IgG1, kappa, V domains shown, N-linked neutral glycans at Asn299 in SEQ ID NO: 5) VH: EVQLVESGGGVVQPGRSLRLSCSASGFTFSGYGLSWVRQAPGKGLEWVAMISSGGSYTYYADSVKGRFAISRDNAKNTLFLQMDSLRPEDTGVYFCARHGDDPAWFAYWGQGTPVTVSS VL: DIQLTQSPSSLSASVGDRVTITCSVSSSISSNNLHWYQQKPGKAPKPWIYGTSNLASGVPSRFSGSGSGTDYTFTISSLQPEDIATYYCQQWSSYPYMYTFGQGTKVEIKR | 0.024 | 24 | 51.2 | 0 | 4 | 14 | 36 | 56 | 49.3
MORAb-003 anti-FRA antibody, lot NB809-70 (CuCl supplement; harvested 13 days after initiation of culture) (antibody, human IgG1, kappa, V domains shown, N-linked neutral glycans at Asn299 in SEQ ID NO: 5) VH: EVQLVESGGGVVQPGRSLRLSCSASGFTFSGYGLSWVRQAPGKGLEWVAMISSGGSYTYYADSVKGRFAISRDNAKNTLFLQMDSLRPEDTGVYFCARHGDDPAWFAYWGQGTPVTVSS VL: DIQLTQSPSSLSASVGDRVTITCSVSSSISSNNLHWYQQKPGKAPKPWIYGTSNLASGVPSRFSGSGSGTDYTFTISSLQPEDIATYYCQQWSSYPYMYTFGQGTKVEIKR | 0.027 | 27 | 53.3 | 0 | 6 | 16 | 37 | 58 | 48
MORAb-003 anti-FRA antibody, lot NB859-24 (harvested 10 days after initiation of culture) (antibody, human IgG1, kappa, V domains shown, N-linked neutral glycans at Asn299 in SEQ ID NO: 5, also called Day 10 harvest) VH: EVQLVESGGGVVQPGRSLRLSCSASGFTFSGYGLSWVRQAPGKGLEWVAMISSGGSYTYYADSVKGRFAISRDNAKNTLFLQMDSLRPEDTGVYFCARHGDDPAWFAYWGQGTPVTVSS VL: DIQLTQSPSSLSASVGDRVTITCSVSSSISSNNLHWYQQKPGKAPKPWIYGTSNLASGVPSRFSGSGSGTDYTFTISSLQPEDIATYYCQQWSSYPYMYTFGQGTKVEIKR | 0.015 | 15 | 44.6 | 0 | 1 | 18 | 40 | 58 | 33.8
MORAb-003 anti-FRA antibody, lot NB810-10 (positive control; harvested 14 days after initiation of culture) (antibody, human IgG1, kappa, V domains shown, N-linked neutral glycans at Asn299 in SEQ ID NO: 5, also called Pos. ctl; positive control (round 1)) VH: EVQLVESGGGVVQPGRSLRLSCSASGFTFSGYGLSWVRQAPGKGLEWVAMISSGGSYTYYADSVKGRFAISRDNAKNTLFLQMDSLRPEDTGVYFCARHGDDPAWFAYWGQGTPVTVSS VL: DIQLTQSPSSLSASVGDRVTITCSVSSSISSNNLHWYQQKPGKAPKPWIYGTSNLASGVPSRFSGSGSGTDYTFTISSLQPEDIATYYCQQWSSYPYMYTFGQGTKVEIKR | 1.63 | 1630 | 58.4 | 0 | 4 | 9 | 32 | 56 | 85.5

— patent US20120164137A1 (MORPHOTEK, published 2012)
